The target of one assay is T1, human CCR6 (human, UniProt P51684 1-374).
T1 construct: whole, on cells; CHO cells; also called CCR6 (human)
T1 sequence (looked up): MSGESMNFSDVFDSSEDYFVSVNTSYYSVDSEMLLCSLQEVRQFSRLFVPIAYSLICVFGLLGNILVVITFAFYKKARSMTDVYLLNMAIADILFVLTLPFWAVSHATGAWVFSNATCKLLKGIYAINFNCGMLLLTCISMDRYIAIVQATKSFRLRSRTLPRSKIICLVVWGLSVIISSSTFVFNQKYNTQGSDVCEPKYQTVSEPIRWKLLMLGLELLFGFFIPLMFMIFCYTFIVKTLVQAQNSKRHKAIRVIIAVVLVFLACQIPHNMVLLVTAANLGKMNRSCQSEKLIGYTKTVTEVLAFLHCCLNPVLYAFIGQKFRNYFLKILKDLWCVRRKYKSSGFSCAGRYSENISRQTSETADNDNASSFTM
In words: FACS, CHO-human CCR6 cells. How it is done:
(§1) In more details, the cell staining procedure was: […] cell suspension in 10 μl FACS buffer (1×PBS, 2.0% FBS, 0.2% sodium azide) was mixed with 10 μl of 200 nM the corresponding anti-CCR7 MAB and incubated on ice for 30 min. Washing step—after the incubation 150 μl of FACS buffer was added to the cell sample, the samples were mixed gently by up-down pipetting the cell suspension. Then the samples were centrifuged at 1100 rpm for 5 minutes, and supernatants were removed. Washing step was repeated ones. Then 10 μl of anti-human PE-(Fab)2 form Jackson Immuno Research Lab. #709-116-098 diluted 40 times in FACS buffer were added to the cells and the cells were re-suspended by up-down pipetting. After 20 min. incubation on ice in dark the washing step was repeated twice. The washed cells were mixed with 100 μl of FIX buffer (0.5% Paraformaldehyde solution in PBS). Fixed samples were stored in dark on ice and analyzed by FACS on Guava PCA-96 flow cytometer. The fluorescent signals collected from individual cells were obtained using fluorescence Activated Cell Sorter (FACS).
On the technique in general: Flow cytometry measures light scatter and fluorescence of single cells or particles in a stream.

The next assay addresses T2, mouse CCR6 (mouse, UniProt O54689 1-367).
T2 construct: whole, on cells; CHO cells; also called CCR6 (mouse)
T2 sequence (looked up): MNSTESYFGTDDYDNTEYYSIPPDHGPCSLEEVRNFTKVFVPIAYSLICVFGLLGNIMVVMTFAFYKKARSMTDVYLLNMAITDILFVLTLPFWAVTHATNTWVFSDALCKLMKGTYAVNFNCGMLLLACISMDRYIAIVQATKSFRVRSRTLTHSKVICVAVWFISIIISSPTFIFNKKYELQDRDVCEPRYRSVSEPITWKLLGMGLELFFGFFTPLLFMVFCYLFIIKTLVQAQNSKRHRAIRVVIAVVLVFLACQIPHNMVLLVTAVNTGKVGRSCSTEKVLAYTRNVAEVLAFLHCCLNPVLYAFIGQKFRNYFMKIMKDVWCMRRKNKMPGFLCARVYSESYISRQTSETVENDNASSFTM
In words: FACS, CHO-mouse CCR6 cells. How it is done:
as §1

A further assay has as its target T3, human CXCR6 (human, UniProt O00574 1-342).
T3 construct: whole, on cells; CHO cells
In words: FACS, CHO-human CXCR6 cells.

The target of a further assay is T4, human CXCR7 (human, UniProt P25106 1-362).
T4 construct: whole, on cells; CHO cells
In words: FACS, CHO-human CXCR7 cells.

For a further assay, the target named is T5, human CCR9 (human, UniProt P51686 1-369).
T5 construct: whole, on cells; R1610 cells
T5 sequence (looked up): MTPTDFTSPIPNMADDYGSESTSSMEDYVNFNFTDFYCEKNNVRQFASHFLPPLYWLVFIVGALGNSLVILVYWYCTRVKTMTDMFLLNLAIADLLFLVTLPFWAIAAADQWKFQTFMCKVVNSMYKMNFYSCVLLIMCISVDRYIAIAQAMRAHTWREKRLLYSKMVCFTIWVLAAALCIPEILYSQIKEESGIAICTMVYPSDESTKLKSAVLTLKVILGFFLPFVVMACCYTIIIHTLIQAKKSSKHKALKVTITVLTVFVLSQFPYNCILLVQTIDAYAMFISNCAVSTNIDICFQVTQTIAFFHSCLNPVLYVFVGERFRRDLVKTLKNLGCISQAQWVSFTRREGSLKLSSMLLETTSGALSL
In words: FACS, R1610-human CCR9 cells. How it is done: as §1

Another assay addresses T6, human CXCR2 (human, UniProt P25025 1-360).
T6 construct: whole, on cells; Cf2th cells
T6 sequence (looked up): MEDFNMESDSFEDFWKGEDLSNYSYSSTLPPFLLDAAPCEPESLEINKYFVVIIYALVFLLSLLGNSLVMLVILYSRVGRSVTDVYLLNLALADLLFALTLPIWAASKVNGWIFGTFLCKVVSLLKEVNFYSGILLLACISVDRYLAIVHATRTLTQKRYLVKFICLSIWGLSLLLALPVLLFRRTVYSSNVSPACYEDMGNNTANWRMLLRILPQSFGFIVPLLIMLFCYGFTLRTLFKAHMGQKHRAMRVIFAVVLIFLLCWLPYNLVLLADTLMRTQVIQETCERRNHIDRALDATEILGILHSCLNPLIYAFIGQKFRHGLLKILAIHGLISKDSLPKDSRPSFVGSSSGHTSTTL
In words: FACS, Cf2th-human CXCR2 cells. How it is done:
as §1

The target in another assay is T7, human CXCR4 (human, UniProt P61073 1-352).
T7 construct: whole, on cells; Cf2th cells
The assay is described as follows: FACS, Cf2th-human CXCR4 cells. On the procedure:
as §1

Another assay concerns the target T8, human CXCR3 (human, UniProt P49682 1-368).
T8 construct: whole, on cells; R1610 cells
T8 sequence (looked up): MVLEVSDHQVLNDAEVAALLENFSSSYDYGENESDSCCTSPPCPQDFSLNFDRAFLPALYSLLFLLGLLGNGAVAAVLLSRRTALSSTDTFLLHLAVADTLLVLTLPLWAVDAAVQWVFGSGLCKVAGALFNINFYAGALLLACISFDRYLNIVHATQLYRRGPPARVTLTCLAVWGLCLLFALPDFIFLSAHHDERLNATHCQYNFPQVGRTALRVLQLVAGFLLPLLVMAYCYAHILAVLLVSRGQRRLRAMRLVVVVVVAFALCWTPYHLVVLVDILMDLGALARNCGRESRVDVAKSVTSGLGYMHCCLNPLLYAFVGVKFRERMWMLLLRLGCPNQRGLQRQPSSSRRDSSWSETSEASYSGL
The assay is described as follows: FACS, R1610-human CXCR3 cells. How it is done: as §1

T3 sequence (O00574 whole entry): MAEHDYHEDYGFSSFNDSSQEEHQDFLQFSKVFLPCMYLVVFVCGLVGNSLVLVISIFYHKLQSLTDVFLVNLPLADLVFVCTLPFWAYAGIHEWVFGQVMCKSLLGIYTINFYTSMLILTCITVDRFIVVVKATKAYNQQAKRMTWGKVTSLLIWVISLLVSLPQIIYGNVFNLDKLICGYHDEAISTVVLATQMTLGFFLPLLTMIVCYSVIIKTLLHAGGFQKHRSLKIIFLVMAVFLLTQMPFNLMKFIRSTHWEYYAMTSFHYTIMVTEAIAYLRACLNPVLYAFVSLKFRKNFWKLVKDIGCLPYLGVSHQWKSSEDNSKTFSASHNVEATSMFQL
T4 sequence (P25106 whole entry): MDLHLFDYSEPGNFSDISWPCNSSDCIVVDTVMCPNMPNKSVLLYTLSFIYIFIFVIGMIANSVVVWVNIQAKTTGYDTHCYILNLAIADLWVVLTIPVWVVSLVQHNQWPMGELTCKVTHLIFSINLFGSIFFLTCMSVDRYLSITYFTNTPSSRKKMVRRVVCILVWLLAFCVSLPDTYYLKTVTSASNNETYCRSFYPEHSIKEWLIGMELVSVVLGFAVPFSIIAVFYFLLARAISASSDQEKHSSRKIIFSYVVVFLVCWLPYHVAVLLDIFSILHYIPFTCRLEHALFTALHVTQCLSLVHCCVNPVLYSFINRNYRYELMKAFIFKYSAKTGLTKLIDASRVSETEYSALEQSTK
T7 sequence (P61073 whole entry): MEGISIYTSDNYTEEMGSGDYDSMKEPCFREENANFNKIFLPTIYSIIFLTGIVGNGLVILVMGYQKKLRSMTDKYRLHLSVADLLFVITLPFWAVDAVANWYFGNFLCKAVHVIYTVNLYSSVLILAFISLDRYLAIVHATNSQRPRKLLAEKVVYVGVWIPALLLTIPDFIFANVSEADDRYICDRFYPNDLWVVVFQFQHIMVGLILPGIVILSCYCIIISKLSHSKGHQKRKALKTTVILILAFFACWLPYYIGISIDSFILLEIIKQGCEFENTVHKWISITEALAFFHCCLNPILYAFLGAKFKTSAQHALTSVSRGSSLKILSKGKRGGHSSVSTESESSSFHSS

B1: MSM-R735 (fully human anti-human CCR7 antibody, IgG1) (antibody)
heavy: not shown
light: EIVLTQSPGTLSLSPGERATLSCRASQSVSSSYLAWYQQKPGQAPRLLIYGASSRATGIPDRFSGSGSGTDFTLTISRLEPEDFAVYYCQQGSPVTFGQGTKVEIKRTVAAPSVFIFPPSDEQLKSGTASVVCLLNNFYPREAKVQWKVDNALQSGNSQESVTEQDSKDSTYSLSSTLTLSKADYEKHKVYACEVTHQGLSSPVTKSFNRGEC
notes: IgG1 format; also called R735 Human IgG1
In the case of B1, the binding result with human CCR6, in the assay with mouse CCR6, in the assay with human CXCR6, in the assay with human CXCR7, with human CCR9 and in the assay with human CXCR2 was “no binding (tested: 200 nM MAB mixed 1:1 with cells)” throughout. For the same molecule, the binding result with human CXCR4 and with human CXCR3 was “no binding (tested: 200 nM MAB mixed 1:1 with cells)” in each case.

B2: MSM-R710 (fully human anti-human CCR7 antibody, IgG1) (antibody, V domains shown)
VH: EVQLLESGGGLVQPGGSLRLSCAASGFTFSNYTMHWVRQAPGKGLEWVSGIGPRSGRTYYADSVKGRFTISRDNSKNTLYLQMNSLRAEDTAVYYCARSYAYQYRGFDYWGQGTLVTVSS
VL: EIVLTQSPGTLSLSPGERATLSCRASQSVSSSYLAWYQQKPGQAPRLLIYGASSRATGIPDRFSGSGSGTDFTLTISRLEPEDFAVYYCQSSVTFGQGTKVEIKR
notes: IgG1 format
As for B2, the binding result in the assay with human CCR6, with mouse CCR6, with human CXCR6, with human CXCR7, with human CCR9 and with human CXCR2 was “no binding (tested: 200 nM MAB mixed 1:1 with cells)” throughout. In addition, the binding result in the assay with human CXCR4 and with human CXCR3 was “no binding (tested: 200 nM MAB mixed 1:1 with cells)” in each case.

The values are drawn from US20150344580A1 (MSM PROTEIN TECHNOLOGIES, published 2015).
